Series [1] has as its target T1, RBP4 (Homo sapiens, UniProt P02753). The note with it: ligand-induced conformational changes of human RBP4; cited from earlier work.
Series [2] is described as follows: Analytical size exclusion chromatography (SEC) of RBP4 binding interaction partners. It is filed as physicochemical. Conditions: PBS with 200 mM NaCl, 25° C. As for the experimental part:
For analytical SEC analysis, a total amount of 25 μg rcSso7d or FN3 mutants in running buffer (PBS with 200 mM NaCl) is filtered through 0.1 μm Ultrafree-MC filter (Merck Millipore), applied to a Superdex 200 10/300 GL column (GE healthcare) connected to an HPLC prominence LC20 system (Shimadzu) and eluted with a flow rate of 0.75 mL/min at 25° C. In addition, multi-angle light scattering (MALS) is used for determining the molecular mass using WYATT Heleos Dawn8+ plus QELS, a refractive index detector RID-10A (Shimadzu) and a diode array detector SPD-M20A (Shimadzu).
For analytical SEC analysis, a total amount of 25 μg of RBP4 binding interaction partners in running buffer (PBS with 200 mM NaCl) was filtered through a 0.1 μm Ultrafree-MC filter (Merck Millipore), applied to a Superdex 200 10/300 GL column (GE healthcare) connected to an HPLC Prominence LC20 system (Shimadzu) and eluted with a flow rate of 0.75 mL/min at 25° C.
For orientation: SEC sorts molecules by how far they enter the pores of the column.

The target of series [3] is T1, RBP4. The series can be described thus: Surface plasmon resonance (SPR), RBP4 immobilized on chip. It is filed as binding. Set-up: Human His-tagged RBP4 (residues 19-201) in pPICZ-alpha-A vector; made in house; host or cells: Pichia pastoris KM71H (secreted). The note with it: for dependence of affinity to RBP4 on the lipocalin-fold ligand A1120: SPR, presence (5 μM) and absence of A1120. As for the experimental part: Surface plasmon resonance (SPR) is used to determine the affinity of the interaction between RBP4 and rcSso7d- or FN3-based lipocalin-fold binding interaction partners and is performed with BiacoreT200 (GE healthcare). The antigen (RBP4) is coated onto a chip and incubated with various concentrations of binder solution in PBS, followed by a dissociation phase in PBS only. All measurements are performed both in the presence and absence of A1120 or other ligands. Finally, kon, koff and Kd values are obtained by global fitting.
Surface plasmon resonance (SPR) was used to determine the affinity of the interaction between RBP4 and rcSso7d- or FN3-based lipocalin-fold binding interaction partners and was performed with BiacoreT200 (GE Healthcare). The antigen (RBP4) was coated onto a CM5 chip (GE Healthcare) and incubated with various concentrations of lipocalin-fold binding interaction partner solution in HBS-EP (GE Healthcare), followed by a dissociation phase in HBS-EP. […] Finally, Kd values (dissociation constants) were obtained by steady-state analysis. […] KD values were calculated by steady-state analysis (right diagram in A and C). One representative experiment out of four independent experiments is shown.
In general terms: SPR reads the build-up and loss of mass on a sensor chip optically.

Series [4] addresses T1, RBP4. Briefly: Isothermal titration calorimetry (ITC) of binder-RBP4 interaction. It is filed as binding. Set-up: Human His-tagged RBP4 (residues 19-201) in pPICZ-alpha-A vector; made in house; host or cells: Pichia pastoris KM71H (secreted). The note with it: presence (50 μM) and absence of A1120. As for the experimental part:
For the thermodynamic characterization of the interaction between RBP4 and rcSso7d- or FN3-based lipocalin-fold binding interaction partners, isothermal titration calorimetry (ITC) is conducted using an automated MicroCal PEAQ-ITC instrument (Malvern Instruments). The samples are centrifuged (17,000 g, 10 min, 20° C.) and filtered (0.1 μm Ultrafree-MC filter, Merck Millipore). RBP4 protein solution is applied to the sample cell and the respective binders are titrated with varying intervals. Different concentrations both for RBP4 and binders are used and in some experiments, binders are applied to the sample cell and RBP4 is titrated. The experiments are performed both in the presence and absence of the ligand A1120 or other ligands. Data analysis is performed with the MicroCal PEAQ-ITC analysis software.
For the thermodynamic characterization of the interaction between RBP4 and rcSso7d- or FN3-based lipocalin-fold binding interaction partners (in this case RBP4 binding interaction partners), isothermal titration calorimetry (ITC) was conducted using the PEAQ Isothermal Titration Calorimeter Automated (Malvern Panalytical). The samples were centrifuged (17000 g, 10 min, 20° C.) and dialysed against the same buffer (PBS). RBP4 protein solution was applied to the sample cell and the respective RBP4 binding interaction partners were titrated with varying intervals. Different concentrations both for RBP4 and RBP4 binding interaction partners were used. […] Data analysis was performed with the MicroCal PEAQ-ITC analysis software and the resulting data were fitted to a one-set-of-sites binding model. […] The signature plots show the thermodynamic parameters of the interaction between RBP4 and RS3. One representative experiment out of four independent experiments is shown. […] The integrated data were fitted to one-set-of-sites binding model to calculate the KD values in FIG. 18. Signature plots show the thermodynamic parameters of the interaction. One representative experiment out of four independent experiments is shown.

A short description of series [5]: Differential scanning calorimetry (DSC) of RBP4 binding interaction partners. Conditions: 80 μM protein, 20-110° C.
Procedure: The stability of RBP4-binding interaction partners is evaluated by determining the melting temperature (Tm) by differential scanning calorimetry (DSC) using MicroCal VP-DSC capillary cell microcalorimeter (MicroCal). Briefly, 30 μM protein solution is exposed to an increasing temperature ranging from 20-110° C. with a heating rate of 1° C./min. Buffer baseline is subtracted and the resulting data are normalized for protein concentration, followed by fitting with a non-two-state thermal unfolding model.
The thermal stability of RBP4 binding interaction partners was evaluated by determining the melting temperature (Tm) by differential scanning calorimetry (DSC) using the PEAQ Differential Scanning Calorimeter Automated (Malvern Panalytical). Briefly, 80 μM protein solution was exposed to an increasing temperature ranging from 20-110° C. with a heating rate of 1° C./min. Buffer baseline was subtracted and the resulting data were normalized for protein concentration, followed by fitting with a non-two-state thermal unfolding model.

As to `CC1=C(/C=C/C(C)=C/C=C/C(C)=C/C(=O)Nc2ccc(O)cc2)C(C)(C)CCC1` [Fenretinide, 15-[(4-hydroxyphenyl)amino]retinal], the “effect of ligand on the RBP4-TTR interaction” value (“effect of ligand” for short) at RBP4 [1] is “dissociation from TTR”.

Turning to `CC(=O)OC/C=C(C)/C=C/C=C(C)/C=C/C1=C(C)CCCC1(C)C` [retinyl acetate], on RBP4 [1], the “effect of ligand” value is “dissociation from TTR”.

Regarding `C/C=C(C)/C=C/C=C(C)/C=C/C1=C(C)CCCC1(C)C` [axerophthene], the “effect of ligand” value at RBP4 [1] was “dissociation from TTR”.

In the case of `CCNC(=O)/C=C(C)/C=C/C=C(C)/C=C/C1=C(C)CCCC1(C)C` [N-Ethylretinamide], the “effect of ligand” value at RBP4 [1] is on record as “dissociation from TTR”.

On to `CC1=C(/C=C/C(C)=C/C=C/C(C)=C/C(=O)O)C(C)(C)CCC1` [all-trans retinoic acid], for which the “effect of ligand” value on RBP4 [1] was “dissociation from TTR”.

B1: RF2: FN3-based lipocalin-fold binding interaction partner binding RBP4 in an A1120-dependent manner (protein)
chain: VSDVPRDLEVVAATPTSLLISWYYPNASHAGYYRITYGETGGNSPVQEFTVPFSIRYTIATISGLKPGVDYTITVYAVTDYAYYYRLSEPISINYRTEIDKPSQ
As for B1, the “folding and oligomeric state (SEC analysis)” value (shortened to “folding and oligomeric state”) in series [2] is listed as “well folded, monomeric proteins”. In addition, the “dependence of affinity to RBP4 on the lipocalin-fold ligand A1120” value in the series with RBP4 [3] and with RBP4 [4] was “strongly depend on the presence of the lipocalin-fold ligand” throughout.

B2: RS5: rcSso7d-based lipocalin-fold binding interaction partner binding RBP4 in an A1120-dependent manner (protein)
chain: ATVKFTYQGEEKQVDISKIKRVARYGQGIYFDYGEGGGAWGYGSVSEEDAPKELLQMLEKQ
Turning to B2, the “folding and oligomeric state” value in series [2] is on record as “well folded, monomeric proteins”. The “thermal stability (DSC analysis)” value in series [5] is “stable proteins”. Also, the “dependence of affinity to RBP4 on the lipocalin-fold ligand A1120” value with RBP4 [3] and with RBP4 [4] was “strongly depend on the presence of the lipocalin-fold ligand” in each case.

B3: RS3: rcSso7d-based lipocalin-fold binding interaction partner binding RBP4 in an A1120-dependent manner (protein)
chain: ATVKLTYQGEEKQVDISKIKRVARYGQNIYFSYDEGGGAYDYGAVSEKDAPKELLQMLEKQ
Take B3: the “folding and oligomeric state” value in series [2] is “well folded, monomeric proteins”. Moreover, in series [5], the “thermal stability (DSC analysis)” value is “stable proteins”. The “dependence of affinity to RBP4 on the lipocalin-fold ligand A1120” value with RBP4 [3] and in the series with RBP4 [4] was “strongly depend on the presence of the lipocalin-fold ligand” each time. The “SPR binding signal to RBP4” value with RBP4 [3] (absence of A1120, same RS3 concentrations as used with 5 μM A1120) was “almost no signal”.
